Assay results reported in US20140079711A1.
Residue numbers refer to the chain shown, from its start.

B1: 5F6(mIgG1) (antibody, V domains shown)
VH: EMKLEESGGGLVQPGGSMKLSCVASGFTFSNYWMNWVRQSPEKGLEWVAQIRLKSYNYATHYAESVKGRFTISRDDSKSSVYLQMNNLRAEDTGIYYCTPDGSDYWGQGTTLTVSS
VL: SIVMTQTPKFLLVSAGDRVTITCKASQSVSNDVAWYQQKPGQSPKLLIYYASNRYTGVPDRFTGSGYGTDFTFTISTVQAEDLAVYFCQQDYSSPYTFGGGTKLEIK
B2: 2C8(mIgG1) (antibody, V domains shown)
VH: B1 VH with W33R
VL: DILMTQSPSSMSVSLGDTVSITCHASQGISSSIGWLQQKPGKSFKGLIYHGTNLEDGVPSRFTGSGSGADYSLTISSLESEDFADYYCVQYAQFPYTFGGGTKLEIK

Experiments:
[1] = molecular target: CD147 Asp19-Asn117-Fc fusion protein (human) (UniProt P35613); test: competition ELISA on coated CD147 Asp19-Asn117-Fc; competitor 2H3; 5F6 against labeled 2H3
[2] = molecular target: CD147 N-domain (Asp19 to Asn117 of SEQ ID NO: 1) (human); test: SPR (Biacore 3000), mAb captured by anti-mouse Fc, N-domain fragment injected
[3] = molecular target: CD147 Asp19-Asn117-Fc fusion protein (human) (UniProt P35613); test: competition ELISA on coated CD147 Asp19-Asn117-Fc; competitor 5F6; 2C8 as competitor against 5F6 on coated CD147 Asp19-Asn117-Fc
[4] = molecular target: CD147 Asp19-Asn117-Fc fusion protein (human) (UniProt P35613); test: competition ELISA on coated CD147 Asp19-Asn117-Fc; competitor 2H3; 2C8 as competitor against 2H3 on coated CD147 Asp19-Asn117-Fc

Row | Binder | IC50 [1] [nM] | Kd [2] [nM] | IC50 [3] [nM] | IC50 [4] [nM]
1 | B1 | 1000 | 0.46 |  | 
2 | B2 |  | 0.43 | 30 | 30
